Results taken from patent publication EP4707393A1, “DOUBLE-STRANDED SIRNA, CONJUGATE THEREOF AND USE THEREOF” (CMS Research & Development Pte. Ltd., priority 2023, dated 2024).

Key:
[1] = test system: human LPA gene (Genbank number: NM_005577.4); test: Inhibitory activity against LPA mRNA, psiCHECK-2 dual-luciferase reporter vector in Huh7 cells; format: cell-based; settings: Huh7 cells transfected with LPA_psiCHECK-2 plasmid, RNAiMAX transfection
Method in brief: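 Huh7 cells transfected with psiCHECK-2 carrying human LPA, then treated next day with compounds (3 concentrations) delivered by RNAiMAX. Dual-Glo readout of firefly and Renilla luciferase per well. Percent inhibition calculated from the reporter ratio relative to the RNAiMAX control.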

hPBMCs = test: Immunogenicity test in hPBMCs (IL-6 and TNF-α ELISA of supernatant); format: cell-based, human; settings: donor 2 hPBMCs, 18-20 h
Method in brief: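 siRNA conjugates, three-fold serially diluted in water then 10-fold in 1640 medium (5.0% water final), were added in duplicate to PBMCs at 1.6 × 10^6/mL and incubated 18-20 h at 37 °C. TNF-α and IL-6 in supernatant were measured by ELISA; LPS served as positive control.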

LPA mRNA = test: In vivo efficacy in LPA-HDI mouse model (liver LPA mRNA); design: species or system BALB/c mouse; settings: 3 mg/kg single subcutaneous injection, Day 14, relative to PBS blank group, 4 mice per group
Protocol: The knockdown effect of the test double-stranded siRNA conjugate on the target gene LPA upon entry into the mouse is evaluated by rapid high-pressure injection of the physiological saline containing recombinant plasmid pcDNA-LPA carrying the target gene via the tail vein.
pcDNA-LPA plasmid, BALB/c mouse, PBS (phosphate buffer), and conjugates of the present invention.
Six-week-old female BALB/c mice were ordered and acclimated/quarantined for three days upon arrival in the animal room.
On Day 0, the mice were randomly grouped based on body weight data. After grouping, all mice were given a single administration via subcutaneous injection, with a dose volume of 10 mL/kg. Mice in Group 1 received PBS; mice in the other groups received the conjugates (dissolved in PBS).
On Day 13 post-administration, all mice were injected with normal saline containing the pcDNA-LPA plasmid via the tail vein within 5 seconds. The injection volume (mL) = mouse body weight (g) × 8%. The amount of plasmid injected per mouse was 10 µg.
On Day 14 post-administration, all groups of mice were euthanized by CO2 inhalation, and 2 liver samples were collected from each mouse. Liver samples were treated overnight with RNAlater at 4 °C, then RNAlater was removed, and stored at -80 °C for detection of LPA gene expression levels.

[2] = Melting temperature (Tm) by UV absorption at 260 nm; format: physicochemical; settings: phosphate buffer solution; average of at least two independent measurements
Protocol: The Tm value was determined by recording the change in UV absorption at 260 nm of DNA/RNA in phosphate buffer solution as the temperature increased.
Table 6 Melting temperature (Tm) test instrument parameters
The melting temperature (Tm) was calculated from the first derivative of the smoothed heating curve, and the reported value was the average of at least two independent measurements. Table 7 Melting temperatures (Tm) of conjugates of the present disclosure

Row | Substance | EC50 [1] | IL-6 (hPBMCs; 5 µg/mL) | TNF alpha (hPBMCs; 5 µg/mL) | IL-6 (hPBMCs; 15 µg/mL) | TNF alpha (hPBMCs; 15 µg/mL) | IL-6 (hPBMCs; 45 µg/mL) | TNF alpha (hPBMCs; 45 µg/mL) | % Downregulation of LPA mRNA (LPA mRNA) | Melting temperature Tm [2]
1 | Z47: siRNA conjugate: sense SEQ ID NO:51, ligand D01 at 3' end of sense strand, antisense SEQ ID NO:83 (sense CCTGCCAAGCTTGGTCATCTA; antisense NAGATGNCCAAGCTTGGCNGGTT; ligand D01 at sense 3' end; listed as RNA; modified_base 1..2: mod_base = OTHER; note = 2'-O-methylcytidine; modified_base 3: mod_base = OTHER; note = 2'-O-methyluridine; modified_base 4: mod_base = OTHER; note = 2'-O-methylguanosine; modified_base 5..6: mod_base = OTHER; note = 2'-O-m; modified_base 1: mod_base = OTHER; note = n is B33; modified_base 2: mod_base = OTHER; note = 2'-deoxyadenosine; note = 2'-O-methyladenosine) | 0.2 nM | 49.9 pg/mL | 15.6 pg/mL | 0.0 pg/mL | 3.4 pg/mL | 16.7 pg/mL | 9.5 pg/mL | 64.0% | 
2 | Z48: siRNA conjugate: sense SEQ ID NO:51, ligand D01 at 3' end of sense strand, antisense SEQ ID NO:84 (sense CCTGCCAAGCTTGGTCATCTA; antisense NAGATGNCCAAGCTTGGCNGGTT; ligand D01 at sense 3' end; listed as RNA; modified_base 1..2: mod_base = OTHER; note = 2'-O-methylcytidine; modified_base 3: mod_base = OTHER; note = 2'-O-methyluridine; modified_base 4: mod_base = OTHER; note = 2'-O-methylguanosine; modified_base 5..6: mod_base = OTHER; note = 2'-O-m; modified_base 1: mod_base = OTHER; note = n is B34; modified_base 2: mod_base = OTHER; note = 2'-deoxyadenosine; note = 2'-O-methyladenosine) | 0.09 nM | 32.0 pg/mL | 15.3 pg/mL | 49.5 pg/mL | 20.4 pg/mL | 1.1 pg/mL | 5.9 pg/mL | 64.0% | 
3 | Z54: siRNA conjugate: sense SEQ ID NO:49, ligand D01 at 3' end of sense strand, antisense SEQ ID NO:90 (sense CAGCCCCTTATTGTTATACGA; antisense NCGTATNACAATAAGGGGCNGTT; ligand D01 at sense 3' end; listed as RNA; modified_base 1: mod_base = OTHER; note = 2'-O-methylcytidine; modified_base 2: mod_base = OTHER; note = 2'-O-methyladenosine; modified_base 3: mod_base = OTHER; note = 2'-O-methylguanosine; modified_base 4..7: mod_base = OTHER; note = 2'-O-me; note = n is B33; note = 2'-fluorocytidine; modified_base 4: mod_base = OTHER; note = 2'-O-methyluridine;) |  |  |  |  |  |  |  |  | 69.00 °C
4 | Z56: siRNA conjugate: sense SEQ ID NO:43, ligand D01 at 3' end of sense strand, antisense SEQ ID NO:92 (sense CAGCCCCTTATTGTTANACGA; antisense TCTCGTATAACAATAAGGGGCTG; ligand D01 at sense 3' end; listed as RNA; modified_base 1: mod_base = OTHER; note = 2'-O-methylcytidine; modified_base 2: mod_base = OTHER; note = 2'-O-methyladenosine; modified_base 3: mod_base = OTHER; note = 2'-O-methylguanosine; modified_base 4..7: mod_base = OTHER; note = 2'-O-me; note = 2'-O-methyluridine; modified_base 4: mod_base = OTHER; note = 2'-fluorocytidine; modified_base 5: mod_base = OTHER; note = 2'-O-methylg) |  |  |  |  |  |  |  |  | 77.25 °C
